# Test: soluble on expression in E. coli; label from the status in PepcDB or PDB records
row,Sequence,soluble on expression in E. coli
1,MTTNDTYEATYAIPMHCENCVNDIKACLKNVPGINSLNFDIEQQIMSVESSVAPSTIINTLRNCGKDAIIRGAGKPNSSAVAILETFQKYTIDQKKDTAVRGLARIVQVGENKTLFDITVNGVPEAGNYHASIHEKGDVSKGVESTGKVWHKFDEPIECFNESDLGKNLYSGKTFLSAPLPTWQLIGRSFVISKSLNHPENEPSSVKDYSFLGVIARSAGVWENNKQVCACTGKTVWEERKDALANNIK,soluble
2,MTTPGSSLPPALVDRTALAARRARMRDAALFLHHAALDEVQDRLSLVNRTFTDMAVVTPAPALWAGSFPMARFVAEDEMLDLAPQSCDLVVHAMALHWANDAVGQLIQCRRALRPDGLLLAICFGGQTLHQLRAALAEAEAQVSGGISPRVAPMAEIRDLGALLQRAGLALPVADSLTLTAEYRDLPHLMRDLRQMGEANALSARLRHPTQRAVFERAEEIYAAHFATPDNRLPATFELICLTGWAPDDSQPKPLRPGSASARLAAALGTSETPLPD,not soluble
3,MTTPLISIRNLCVDYITDAGDVRACNNVSFDLAPGEVFGLAGESGCGKSTVAFSLMRLHKPPAFITGGEVIFNGEDILKYSDERMQAFRWKEMSMVFQSAMNALNPVLTMEEQFCDVITRHTNMTREQAKRRAEGLLEIVDIHPSRLNDYPHQFSGGMRQRLVIAIALALNPKMIIMDEPTTALDVVVQREILQKIYALKEEFGFSILFITHDLSLMVEFSDRIGIMYSGELIEVAPSKQILETPYHPYTKGLGSSFPPLTGPKTKLTGIPGNPLNLLDIPQGCRFQARCDRVHEACTKVPTVLRQIEHGRFSNCHLYTQSNATIKR,not soluble
4,MTTSIQRRISIVIPCLNDAVLLEQCLSSIVAQTLQPEEVIVVDNGSTDNSVEVANRMGARVVHEPLQGITWASAAGYNSARGDLIVRFDADCVIPPDHLSQVNAIWNRTEETPGRTIVALTGTGSFDIPGRMGEWLALCYLGAYRWSTKQALGHYPIFGSNSVISRQWWEDVKDQITLSETFVHEDMYFSFFVRPHETVWFEKNLKLIMHPRALMGVRQSFIRLVRGFYTIKIAWKREPVHQRLESRRDWTLEHHHHHH,not soluble
5,MTTTQDWIMIGGYGPESYNQQSSYQRALLEAAKDKMTEAISANLDLDLISNRFIVADFGCASGPNTFVAVQNIIDAVEEKYLRETGQNPEDNIEFQVLFNDLRINDFNTLFQTLPPGRRYFSAGVPGSFFNRVLPKQSFHIAVMSYAFLFTSKIPKGIMDRDSPLWNKDMQCTGFNPAVKKAYLEQYSIDTKNLLDARAEELMPGGLMLLLGSCMRDGVKMSETLKGTVMDFIGESLNDLAQKGVTEQEKVDTFKTSIYFAEQGEIRQIIEENGKFTIEAFEDIIHSKNEFPLDPKTLAISFKALYGAFISAHFGIEVMRKAFELVEVKAREQISRLHKVKPGMQYLIVLRKN,soluble
6,MTTTSAFMLNVRLDNVAVVAIDVPGEKVNTLKAEFATQVRAILKQIRENKALQGVVFISAKADNFIAGADINMIGHCQNAQEAETLARQGQQLMAEIQALPVPVIAAIHGACLGGGLEMALACHRRICTDDVKTVLGLPEVQLGLLPGSGGTQRLPRLVGVSTALDMILTGKQLRARQALKAGLVDDVVPQTILLEAAVELAKKERLAQRTLPVRERILAGPLGRALLFRLVRKKTAQKTQGNYPATERIIDVIETGLAQGSSSGYDAEARAFGELAMTPQSQALRAIFFASTEVKKDPGSDAPPGPLNSVGILGGGLMGGGIAWVTACKGGLPVRIKDINTQGINHALKYSWDLLETKVRRRHIKASERDKQLALISGSTDYRGFSHRDLVIEAVFEDLPLKQQMVAEVEQNCAAHTIFASNTSSLPIGDIAANAARPEQVIGLHFFSPVEKMPLVEVIPHASTSAQTIATTVKLAKKQGKTPIVVSDKAGFYVNRILAPYINEAIRMLTEGERVEHIDAALVKFGFPVGPIQLLDEVGIDTGTKIIPVLEAAYGERFSAPANVVASILNDDRKGRKNGRGFYLYGEKGRKSKKQVDPAIYKLIGVQGQSRLSAQQVAERCVMLMLNEAARCFDEKVIRSARDGDIGAVFGIGFPPFLGGPFRYMDALGPGEMVATLQRLAALYGPRYAPCEQLVRMAERREHFWTNGETDQGN,not soluble
7,MTTVLLDSHVAYWWSAEPQRLSMAASQAIEHADELAVAAISWFELAWLAEQERIQLAIPVLSWLQQLAEHVRTVGITPSVAATAVALPSSFPGDPADRLIYATAIEHGWRLVTKDRRLRSHRHPRPVTVW,soluble
8,MTTWTLNHNNLTKFLTHAQLEPSLERESGLIYITVPAGEHELPLFFVIRNEGEVLQLVCYFPYQIQQNQRDTTARLLHLVNRDIDIPGFGMDEEQNIIFYRLVIPCLKGEINEDLLRVYIDTIKLICDSFFHAIGLISTGNMDLDELKKQAKLENNQSDQLEP,soluble
9,MTVFANRLLGPKGWLLNARVTIDGLFIASVEPDSAPLPGDVRVDTLLPAPGNLHSHSFQRAMAGMTEYRSRGRESFWTWRELMYRFLDRLTPEHVAAIAAQTFVEMQKAGYAAVGEFHYLHHRPGGGHYDDRAEMSARIVQAAAETGIGLTLLPVLYTHGGADGRALAGGQLRFGNDLDAYCTLVEGARAHTRTLAADARVGIAPHSLRAVSATDLAEVAARHPDGPVHIHIAEQTREVEEIEAAYGARPVDWLLNNAAVGPRWCLIHATHMSDAETRAMASTGAVAGLCPITEANLGDGIFNGVPYLEAGGAFGVGSDSNVLISLTEELRLLEYSQRLRDRERNVLAGAEGSTGAALYLGALRGGARALDRRAGEIAPGALADLVAIDSNAPALCALEPEQLLDGLIFAAGERVVSDLWSAGRHQVRAGRHVAEESIARRYGAALRDLLARV,not soluble
10,MTVKCKAEESLTCSCVDVGTIIDGSDCSVEVHQFYSTEADANAVLERLTKKARNTESDPCEIKSEIVAVENGVQLNASFTFSCQAEAMIFELANR,not soluble
11,MTVPSIVLNDGNSIPQLGYGVYKVPPADTQRAVEEALEVGYRHIDTAAIYGNEEGVGAAIAASGIARDDLFITTKLWNDRHDGDEPAAAIAESLAKLALDQVDLYLVHWPTPAADNYVHAWEKMIELRAAGLTRSIGVSNHLVPHLERIVAATGVVPAVNQIELHPAYQQREITDWAAAHDVKIESWGPLGQGKYDLFGAEPVTAAAAAHGKTPAQAVLRWHLQKGFVVFPGSVRREHLEENLDVFDFDLTDTEIAAIDAMDPGDGSGRVSGHPDEVD,soluble
12,MTVQQSGRRERKKAATRQKIADTALRLFLERGYDAVGIRDVAAEADVAVTTLFSHFASKEALVFEQDEDFEHRLTRAVTDRAPHEPLIPALRREILALVRHCTADSAAPIWRMIDASPALRKYDESVRLRHAEALATAIAADPTRTRSETAARTLARFVIDAYSLSREAPDPEAALDEIFPMIEAAWAAARPPHPT,not soluble
13,MTVRILAVCGNGQGSSMIMKMKVDQFLTQSNIDHTVNSCAVGEYKSELSGADIIIASTHIAGEITVTGNKYVVGVRNMLSPADFGPKLLEVIKAHFPQDVK,not soluble
14,MTVSDHPQTVSQPDPESESRPSKTRLKQEMHALQALGERLVELEPARIAELDLPEKLAEALLEARKITSHGARRRHLQFIGKLMRAVDPLPVQEKLDAWQHTGMRHTAWLHQLERWRDRLISDETAVTEFVQTYPHTDVRQLRTLLRNIEKEKLAGKPPHNFRALFQLLRQIIPEIPG,not soluble
15,MTVSDRELEECIRALLDARADSASICPSDVARAVAPDDWRPLMEPVREAAGRLADAGEVEVTQKGAVVDPRSARGPIRIRWTRTD,soluble
16,MTVSTPPSIATGNAPSPDYRVEILSESLPFIQKFRGKTIVVKYGGAAMTSPELKSSVVSDLVLLACVGLRPILVHGGGPDINRYLKQLNIPAEFRDGLRVTDATTMEIVSMVLVGKVNKNLVSLINAAGATAVGLSGHDGRLLTARPVPNSAQLGFVGEVARVDPSVLRPLVDYGYIPVIASVAADDSGQAYNINADTVAGELAAALGAEKLILLTDVAGILENKEDPSSLIKEIDIKGVKKMIEDGKVAGGMIPKVKCCIRSLAQGVKTASIIDGRRQHSLLHEIMSDEGAGTMITG,soluble
17,MTVTDHILPTATNGRPPGLIIAAPSTNSGKTTVTLALHAALRRRSLTVQPYKCGPDYIDPAFHEIAAGRPCYNLDSWAFGQDRITYLLDAAAGADLCLAEGVMGLFDGGSARGAWGNGATADIAAFTGWPVVLVIDVAGQAQSAAALALGFARYRSDVRIAGVILNNVASARHEALVRDGFAAQDIPVLGGFERQRDLTLKNRHLGLVQARETARLDIRLQQLADSAVRGIDLDALIRAAQPARPIASTIRPLTPPGQRIALAHDDAFSFIYPHLTAGWRAAGAEIVPFSPLNDEGPDPSCDAAWLPGGYPELHAGRLAAATRFKAALGAFAETRAVHGECGGYMTLGAGLIDADGTRHAMAGLLGLETDFASRKLHLGYRLATLHADAAGKAAGSVLRGHEYHYARVVTVADEPLAEIRDPAGQLTDETGSRRGHVTGTFFHLIDVAEEAIALEHHHHHH,not soluble
18,MTVYKGSKKEAKPKECLLFFDKKTNTVRLEKITSNINVKKTRDLDQGTELALKRGIERLRTSSNNQRSGPSSPEEKAKIQKQMQRDTSDSSSDSDGSSDSDKSNGDSSDDEDESEKILLEEMKKPKPYTEREPAPPSSSNTYNHKESHVAPYISSSGNKNKDSEEKYGLALSESSDEDD,not soluble
19,MTYCLGIVTQAGLIMAADSRTNAGIDYISTYQKLFDFSLPGDRTIVICCSGNLSITQAVLSQLRRDLAGHFDINLHSLPTMYDLARYLGQKVRQLQESDRDWLKQDGIDFYCNFLLGGQIRGGPIELYLVYGQGNCIHATPETPYLQIGETKYGKPILDRTISFDTSLDMAAKCALMSLDSTMRSNLSVGPPLNLARYERDSLVAPMLVQFPAGHEYLVEMRRRWEISLKDAFMRLPDIDWSRQLMRSLSPVSESVP,not soluble
20,MTYDYVIVGGGIVGVSTGWQLKRRYPEKSVLLIEKEAGFSRHQTGHNSGVIHAGVYYAPGSLKADFCKRGVERTLAFCAQHNIPVENCGKLLVATNEQELERMHALYDRCLQNQIDVEKLDAAQLKLAEPNIRGLGAILVKATSIVNYRLVTEKMAEAFMQLGGDVKIGTEVVGLEETPSSITLTCQQKNQRVSYQAKFLVTCSGLMADRLTKMLGLPTDFQIIPYRGEYYRLAPKHNQVVRHLIYPIPDPELPFLGVHLTRMIDGCVTVGPN,not soluble
21,MTYELAIGDRAYSSWSLRGWLLFDAFGLPVRVRRARLYTDELPALLADFAPARTVPAMKTSAGTVVAESLAIAEELASRHPEAGIWPADPEHRAVARALAAEMHAGFGALRSHCPMNLRVSYEGCDPPEAVQADLARLERIWAEARARCSTEGPWLCGSYSAADVFFAPVAARIAGYGLAVSPEAQAYVAAHLAHPSFRRWRAMGAVDGADQEFYARPYPPRPWPGPAPLPARAVADGVAENDACPYSGAPVTDLLEIEGRIFGFCNPFCRDKTVADPEAWPAFTALLRHREGS,not soluble
22,MTYGVISWWDYGHWIEAVAHRMPIANPFQAGIGNKYNNVPGASSFFTAENESYAEFVAEKLNVKYVVSDIEMETGKYYAMAVWAEGDLPLAEKYYGGYFYYSPTGTFGYANSQWDIPLNSIIIPLRIPSELYYSTMEAKLHLFDGSGLSHYRMIYESDYPAEWKSYSSQVNLNNESQVLQTALYEAVMRARYGVSPTLEHHHHHH,not soluble
23,MTYKGYLIDLDGTIYKGKDRIPAGEDFVKRLQERQLPYILVTNNTTRTPEMVQEMLATSFNIKTPLETIYTATLATIDYMNDMKRGKTAYVIGETGLKKAVAEAGYREDSENPAYVVVGLDTNLTYEKLTLATLAIQKGAVFIGTNPDLNIPTERGLLPGAGAILFLLEKATRVKPIIIGKPEAVIMNKALDRLGVKRHEAIMVGDNYLTDITAGIKNDIATLLVTTGFTKPEEVPALPIQPDFVLSSLAEWDFDER,soluble

# Reference: the DeepSol protein solubility set
